From patent US20230137139A1, “BIOSYNTHESIS OF CANNABINOIDS AND C[…]” (priority 2020, published 2023)
Changes are numbered by the printed parent chain.

B1: t865737 (protein)
chain: MGNTTSIAGRDCLISALGGNSALAVFPNELLWTADVHEYNLNLPVTPAAITYPETAAQIAGIVKCASDYDYKVQARSGGHSFGNYGLGGADGAVVVDMKHFTQFSMDDETYEAVIGPGTTLNDVDIELYNNGKRAMAHGVCPTIKTGGHFTIGGLGPTARQWGLALDHVEEVEVVLANSSIVRASNTQNQDVFFAVKGAAANFGIVTEFKVRTEPAPGLAVQYSYTFNLGSTAEKAQFVKDWQSFISAKNLTRQFYNNMVIFDGDIILEGLFFGSKEQYDALGLEDHFAPKNPGNILVLTDWLGMVGHALEDTILKLVGNTPTWFYAKSLGFRQDTLIPSAGIDEFFEYIANHTAGTPAWFVTLSLEGGAINDVAEDATAYAHRDVLFWVQLFMVNPVGPISDTTYEFTDGLYDVLARAVPESVGHAYLGCPDPRMEDAQQKYWRTNLPRLQELKEELDPKNTFHHPQGVMPA
B2: t865744 (protein)
chain: B1 chain with I62V, V260F
B3: t865694 (protein)
chain: B1 chain with A57E, I62V, I126A
B4: t865717 (protein)
chain: B1 chain with I62V, E112V, N122S
B5: t865746 (protein)
chain: B1 chain with I62V, V386A
modifications: expressed in S. cerevisiae strain

These molecules were tested on CBCA, THCA, and CBDA production (assay: In vivo TS activity assay, Example 2 protein engineering of A. niger CBCAS, cultures fed olivetolic acid). Details: secondary screen.
Type: cell-based, S. cerevisiae
Procedure, shortened: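 CBCA, THCA and CBDA were measured by LC-MS in methanol extracts of yeast cultures expressing mutant A. niger CBCAS. Cultures were induced at 20 °C with galactose and fed 1 mM olivetolic acid daily for 4 days, then buffered with 100 mM sodium citrate pH 5.5. Secondary screen: quadruplicates fed 1 mM olivetolic or divaric acid.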
For B1, the “average CBCA titer compared with the A. niger positive control” value was “higher”. For B2, the “average CBCA titer compared with the A. niger positive control” value was “higher”. With B3 the “average CBCA titer compared with the A. niger positive control” value was “higher”. For B4, the “average CBCA titer compared with the A. niger positive control” value was “higher”. B5 was tested, and the “average CBCA titer compared with the A. niger positive control” value was “higher”.

Same assay, conditions: secondary screen, olivetolic acid (Table 8)
For B1, the “Mean CBCA” value was 53771.53 µg/L, the “Mean CBDA” value was 10699.35 µg/L and the “Mean THCA” value was 2873.74 µg/L. B2 was tested, and the “Mean CBCA” value was 44305.26 µg/L, the “Mean CBDA” value was 7187.94 µg/L and the “Mean THCA” value was 2369.76 µg/L. B3 was tested, and the “Mean CBCA” value was 43506.37 µg/L, the “Mean CBDA” value was 9126.46 µg/L and the “Mean THCA” value was 2579.57 µg/L. In the case of B4, the “Mean CBCA” value is reported as 44204.43 µg/L, the “Mean CBDA” value is reported as 9698.33 µg/L and the “Mean THCA” value is reported as 2648.36 µg/L. B5 was tested, and the “Mean CBCA” value was 49195.03 µg/L, the “Mean CBDA” value was 9456.09 µg/L and the “Mean THCA” value was 2882.16 µg/L.

Same assay, conditions: share of terminal cannabinoid product profile
In the case of B1, the “% CBCA” value is reported as 79.85%, the “% CBDA” value is reported as 15.89% and the “% THCA” value is reported as 4.27%. B2 was tested, and the “% CBCA” value was 82.26%, the “% CBDA” value was 13.34% and the “% THCA” value was 4.40%. For B3, the “% CBCA” value was 78.80%, the “% CBDA” value was 16.53% and the “% THCA” value was 4.67%. For B4, the “% CBCA” value was 78.17%, the “% CBDA” value was 17.15% and the “% THCA” value was 4.68%. With B5 the “% CBCA” value was 79.95%, the “% CBDA” value was 15.37% and the “% THCA” value was 4.68%.

What follows are molecules tested on CBCVA, THCVA, and CBDVA production (assay: In vivo TS activity assay, Example 2 protein engineering of A. niger CBCAS, cultures fed divaric acid). Details: S. cerevisiae strains expressing A. niger CBCAS mutants, secondary screen, fed divaric acid.
Type: cell-based, S. cerevisiae
Procedure, shortened: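 Quantification by LC-MS of methanol-extracted production cultures, strains in quadruplicate. Yeast carrying mutant A. niger CBCAS (MFalpha2 N-terminal and HDEL C-terminal signal peptides) were induced 4 days at 20 °C in YEP+4% galactose fed 1 mM divaric acid, re-dosed every 24 h with 2% galactose and 1 mM divaric acid, after 2 days of dextrose preculture at 30 °C; 100 mM citrate pH 5.5 was then added for 2 more days.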
With B1 the “Mean CBCVA” value was 4271.01 µg/L, the “Mean CBDVA” value was 0.00 µg/L and the “Mean THCVA” value was 2136.23 µg/L. B2 was tested, and the “Mean CBCVA” value was 3752.20 µg/L, the “Mean CBDVA” value was 0.00 µg/L and the “Mean THCVA” value was 2162.61 µg/L. For B3, the “Mean CBCVA” value was 3069.69 µg/L, the “Mean CBDVA” value was 0.00 µg/L and the “Mean THCVA” value was 1647.98 µg/L. For B4, the “Mean CBCVA” value was 3668.51 µg/L, the “Mean CBDVA” value was 0.00 µg/L and the “Mean THCVA” value was 1721.38 µg/L. B5 was tested, and the “Mean CBCVA” value was 4751.98 µg/L, the “Mean CBDVA” value was 0.00 µg/L and the “Mean THCVA” value was 2061.14 µg/L.

Same assay, conditions: secondary screen
For B1, the “average CBCVA titer compared with the A. niger positive control” value was “higher”. For B2, the “average CBCVA titer compared with the A. niger positive control” value was “higher”. With B4 the “average CBCVA titer compared with the A. niger positive control” value was “higher”. B5 was tested, and the “average CBCVA titer compared with the A. niger positive control” value was “higher”.

Same assay, conditions: share of terminal cannabinoid product profile, fed divaric acid
For B1, the “% CBCVA” value was 66.66%, the “% CBDVA” value was 0.00% and the “% THCVA” value was 33.34%. In the case of B2, the “% CBCVA” value is reported as 63.44%, the “% CBDVA” value is reported as 0.00% and the “% THCVA” value is reported as 36.56%. For B3, the “% CBCVA” value was 65.07%, the “% CBDVA” value was 0.00% and the “% THCVA” value was 34.93%. For B4, the “% CBCVA” value was 68.06%, the “% CBDVA” value was 0.00% and the “% THCVA” value was 31.94%. For B5, the “% CBCVA” value was 69.75%, the “% CBDVA” value was 0.00% and the “% THCVA” value was 30.25%.
